Reference: paper doi:10.1101/2023.06.05.543781
Values belong to the substance of their own block, whether it stands above or below them.

Key:
[1] = biological target: VAMP2 (mouse) (UniProt P63044)
[2] = biological target: Syntaxin1 (rat) (UniProt P32851)
[3] = biological target: Munc13-1 C1-C2B-MUN-C2C domain (rat) (UniProt Q62768)

Chain of UniProt P32851 (P32851 whole entry, the tested form may be a part): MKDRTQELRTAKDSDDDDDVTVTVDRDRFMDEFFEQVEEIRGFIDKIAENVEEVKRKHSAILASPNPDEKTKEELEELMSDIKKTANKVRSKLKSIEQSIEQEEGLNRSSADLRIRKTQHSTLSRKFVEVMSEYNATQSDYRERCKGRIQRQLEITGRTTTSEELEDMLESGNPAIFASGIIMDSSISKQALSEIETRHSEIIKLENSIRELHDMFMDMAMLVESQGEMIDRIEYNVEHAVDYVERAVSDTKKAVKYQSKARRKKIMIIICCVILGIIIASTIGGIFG
Chain of UniProt P63044 (P63044 whole entry): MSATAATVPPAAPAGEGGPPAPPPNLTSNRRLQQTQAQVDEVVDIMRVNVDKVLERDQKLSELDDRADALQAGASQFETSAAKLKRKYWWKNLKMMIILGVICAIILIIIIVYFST

Ca^2+ (100 μM)-evoked fusion of the immobile, clamped vesicles, with 500 nM DHG [1]: 20%
Substance: Munc13-1 C1-C2B-MUN-C2C domain D1358K (from UniProt Q62768 529-1407; Q62768 1453-1735) (domain or fragment)

Substance: Munc13-1 C1-C2B-MUN-C2C domain N1128A/F1131A (from UniProt Q62768 529-1407; Q62768 1453-1735) (domain or fragment)
Ca^2+ (100 μM)-evoked fusion of the immobile, clamped vesicles, with 500 nM DHG [2]: 20%

Ca^2+ (100 μM)-evoked fusion of the immobile, clamped vesicles, with 500 nM DHG [3]: 20%
Substance: SNAP25 linker mutant with residues 113-138 replaced by a GGGGS repeat sequence (from UniProt P60879 1-112; P60879 139-206) (natural protein)
